Measurements reported in paper PMC8196010 (Communications Biology, 2021).
No end group written: not given here.

What was measured:
[1] = target: recombinant human PALS1 PDZ (residues 255-336) (Homo sapiens, UniProt Q8N3R9); test: biochemical; type: binding
[2] = target: SARS-CoV-2 E protein C-terminal PBM (Severe acute respiratory syndrome coronavirus 2) (UniProt P0DTC4); conditions: cited from earlier work
[3] = target: SARS-CoV-1 E protein C-terminal PBM (Severe acute respiratory syndrome coronavirus) (UniProt P59637); conditions: cited from earlier work
[4] = target: SARS-CoV-2 E protein PBM (Severe acute respiratory syndrome coronavirus 2); test: ITC
[5] = target: SARS-CoV-1 E protein PBM (Severe acute respiratory syndrome coronavirus); test: ITC

EGVPDLLV [SARS-CoV-2 PBM]
Kd [1]: 22.8 ± 1.2 µM

PALS1 PDZ (from UniProt Q8N3R9)
Kd [2]: 40 µM | Kd [3]: 130 µM

SRVPDLLV [SARS-CoV-1 PBM]
Kd [1]: 29.6 ± 2.3 µM

B1: PALS1 255-336, Q8N3R9 (protein)
chain: KIVRIEKARDIPLGATVRNEMDSVIISRIVKGGAAEKSGLLHEGDEVLEINGIEIRGKDVNEVFDLLSDMHGTLTFVLIPSQ
Kd [4]: 22.8 µM | Kd [5]: 29.6 µM
